Assay results: US20250289899A1 (Genmab, published 2025)
Blank lines part the entries; values can stand above or below the binder they belong to.

Assays:
[1] = molecular target: T1, human CD27, full length, on cells (T cells, transfected HEK293F cells, Daudi cells, NFκB-luc2/CD27 Jurkat … (human, UniProt P26842 20-240)); experiment: flow cytometry on T cells in human PBMC (endogenous CD27), PE goat anti-human IgG, median MFI PE
T1 construct: Residues 1-19 are stated to be the signal peptide; also called TNFRSF7
T1 sequence: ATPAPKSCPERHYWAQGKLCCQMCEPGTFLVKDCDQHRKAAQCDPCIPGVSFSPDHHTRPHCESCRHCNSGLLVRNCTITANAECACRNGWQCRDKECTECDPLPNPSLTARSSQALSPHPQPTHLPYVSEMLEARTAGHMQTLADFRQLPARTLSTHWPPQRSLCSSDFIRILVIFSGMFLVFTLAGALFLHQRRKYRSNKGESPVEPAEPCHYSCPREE
Experimental: (§1) Non-binding control antibody IgG1-b12-FEAR was used as negative control antibody. *N.B. IgG1-CD27-A, -B, -C, -D and -E carried mutations F405L-L234F-L235E-D265A in the IgG Fc domain, which are functionally irrelevant in the context of this experiment.
(§2) Cells were seeded in 96-Wells plates (100,000 cells per well; Greiner Bio-one, Cat #650180) for sequential incubations, with washing steps in between with FACS buffer, consisting of PBS (Lonza, Cat #BE17-517Q)+1% BSA (Roche, Cat #10735086001)+0.02% Sodium Azide (Bio-World, Cat #41920044-3). The following incubations were applied: antibody concentration series (0.0001-10 μg/mL final concentration) for 30 min at 4° C.; live/dead marker FVS510 (BD, Cat #564406, diluted 1:1,000 in PBS) for 20 min at RT; PE-labeled polyclonal goat anti-human IgG (Jackson Immuno Research, Cat #109-116-098, diluted 1:500) for 30 min at 4° C.; and anti-CD3 antibody for T-cell identification (anti-human CD3: BD, Cat #555335, diluted 1:10; anti-cyno CD3: Miltenyi, Cat #130-091-998, diluted 1:10) for 30 min at 4° C. All samples were analyzed on a FACSCelesta flow cytometer (BD) and FlowJo software. Data were processed and visualized using GraphPad Prism.

[2] = molecular target: T2, cynomolgus monkey CD27, full length, on cells (cynomolgus T cells, transfected HEK293F cells) (cynomolgus monkey (Macaca fascicularis), UniProt P26842 20-260 (human entry)); experiment: flow cytometry on HEK293F cells transfected with cynomolgus CD27, PE goat anti-human IgG, median MFI PE
T2 construct: also called cyno CD27
T2 chain: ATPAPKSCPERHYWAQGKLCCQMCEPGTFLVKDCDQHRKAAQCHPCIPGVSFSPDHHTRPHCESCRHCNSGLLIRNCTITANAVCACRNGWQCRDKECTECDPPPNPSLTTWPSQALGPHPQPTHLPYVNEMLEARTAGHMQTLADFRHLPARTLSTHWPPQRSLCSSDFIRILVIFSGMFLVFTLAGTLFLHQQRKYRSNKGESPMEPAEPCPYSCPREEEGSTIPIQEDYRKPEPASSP
Experimental: as §1, §2

[3] = molecular target: T1, human CD27, full length, on cells (T …); experiment: flow cytometry on HEK293F cells transfected with human CD27, PE goat anti-human IgG, median MFI PE
[4] = molecular target: T2, cynomolgus monkey CD27, full length, on …; experiment: flow cytometry on T cells in cynomolgus PBMC (endogenous CD27), PE goat anti-human IgG, median MFI PE
Experimental: as §1, §2

[5] = molecular target: T3, human C1q (from normal human serum) (human, UniProt P02745 23-245; P02746 28-253; P02747 29-245); experiment: flow cytometry, C1q (20% normal human serum) on human T cells pre-incubated with the antibody, FITC rabbit anti-human C1q, median MFI FITC; antibody concentration varied
T3 construct: 20% normal human serum was the source of C1q
Experimental: The P329R mutation was previously described to reduce interaction of IgG1 antibodies with C1q and FcgR (Overdijk et al, Molecular Cancer Therapeutics 2020). The effect of the P329R mutation on C1q binding of IgG1-CD27-A comprising the E345R mutation was tested in cellular C1q binding assays in vitro using human healthy donor T cells. Anti-HIV gp120 antibody IgG1-b12-F405L was used as non-binding isotype control antibody (ctrl). […] T cells (2×10⁶ cells/well) were pre-incubated in polystyrene 96-well round-bottom plates with antibody dilution series (8× five-fold dilution starting at 15 μg/mL final assay concentration) for 15 min at 37° C. to allow the antibodies to bind to the T cells. Then, cells were cooled on ice, supplemented with NHS as a source of human C1q (20% NHS final assay concentration) and incubated on ice for 45 min. Cells were subsequently incubated on ice with FITC-labeled Rabbit anti-human C1q antibody (DAKO, Cat #F0254; 20 μg/mL) for 30 min and resuspended in FACS buffer with TO-PRO-3 (ThermoFisher, Cat #T3605; 1:5,000 dilution). C1q binding was determined by flow cytometry measuring the FITC signal on live cells.

T3 sequence (P02745 23-245 limits assumed, chain 1 of 3): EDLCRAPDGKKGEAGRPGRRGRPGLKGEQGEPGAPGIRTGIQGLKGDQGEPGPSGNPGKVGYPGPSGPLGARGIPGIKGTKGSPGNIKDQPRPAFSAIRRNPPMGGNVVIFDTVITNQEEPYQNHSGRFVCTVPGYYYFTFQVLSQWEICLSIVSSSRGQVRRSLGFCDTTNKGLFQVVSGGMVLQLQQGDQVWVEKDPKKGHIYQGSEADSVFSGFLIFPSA
T3 sequence (P02746 28-253 limits assumed, chain 2 of 3): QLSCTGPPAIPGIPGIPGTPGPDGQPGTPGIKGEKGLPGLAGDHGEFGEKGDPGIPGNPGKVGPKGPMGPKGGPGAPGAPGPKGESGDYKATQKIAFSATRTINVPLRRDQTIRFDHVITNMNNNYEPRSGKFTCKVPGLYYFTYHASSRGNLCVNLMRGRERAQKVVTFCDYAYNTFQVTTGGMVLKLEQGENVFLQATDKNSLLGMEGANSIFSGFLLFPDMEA
T3 sequence (P02747 29-245 limits assumed, chain 3 of 3): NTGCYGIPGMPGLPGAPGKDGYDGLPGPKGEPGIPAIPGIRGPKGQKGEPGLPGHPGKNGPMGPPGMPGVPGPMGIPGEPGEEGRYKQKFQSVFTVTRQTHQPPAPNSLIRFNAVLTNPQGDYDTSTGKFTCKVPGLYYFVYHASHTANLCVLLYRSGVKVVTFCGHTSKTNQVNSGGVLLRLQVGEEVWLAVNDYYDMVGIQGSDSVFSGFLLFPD

EC50 (read off the curve) [1]: ~0.04 µg/mL
EC50 (read off the curve) [2]: ~0.06 µg/mL
EC50 (read off the curve) [3]: ~0.1 µg/mL
EC50 (read off the curve) [4]: ~0.04 µg/mL
B1: IgG1-CD27-A carrying F405L-L234F-L235E-D265A in the IgG Fc domain (antibody)
heavy: QVQLMQSGSELKKPGASVKVSCRASGYTFTTYAMNWVRQAPGQGPEWMGWINTNTGNPTYAQGFTGRFVFSLDTTVTTTYLQISSLKAEDTAVYFCAREAGSFDYWGQGTLVTVSSASTKGPSVFPLAPSSKSTSGGTAALGCLVKDYFPEPVTVSWNSGALTSGVHTFPAVLQSSGLYSLSSVVTVPSSSLGTQTYICNVNHKPSNTKVDKRVEPKSCDKTHTCPPCPAPEFEGGPSVFLFPPKPKDTLMISRTPEVTCVVVAVSHEDPEVKFNWYVDGVEVHNAKTKPREEQYNSTYRVVSVLTVLHQDWLNGKEYKCKVSNKALPAPIEKTISKAKGQPREPQVYTLPPSREEMTKNQVSLTCLVKGFYPSDIAVEWESNGQPENNYKTTPPVLDSDGSFLLYSKLTVDKSRWQQGNVFSCSVMHEALHNHYTQKSLSLSPGK
light: QSALTQPASVSGSPGQSITISCTGTSSDVYYYNYVSWYQQHPGRAPKLVIYDVSNRPSGVSNRFSGSKSGNTASLTISGLRAEDEADYYCSSYTVNRVWVFGGGTKLTVLGQPKAAPSVTLFPPSSEELQANKATLVCLISDFYPGAVTVAWKADSSPVKAGVETTTPSKQSNNKYAASSYLSLTPEQWKSHRSYSCQVTHEGSTVEKTVAPTECS

binding result [5]: no binding (tested: 15 µg/mL)
B2: IgG1-CD27-A (wild-type IgG1 Fc) (antibody)
heavy: not shown
light: QSALTQPASVSGSPGQSITISCTGTSSDVYYYNYVSWYQQHPGRAPKLVIYDVSNRPSGVSNRFSGSKSGNTASLTISGLRAEDEADYYCSSYTVNRVWVFGGGTKLTVLGQPKAAPSVTLFPPSSEELQANKATLVCLISDFYPGAVTVAWKADSSPVKAGVETTTPSKQSNNKYAASSYLSLTPEQWKSHRSYSCQVTHEGSTVEKTVAPTECS
notes: also called WT IgG1-CD27-A; IgG-CD27-A

EC50 (read off the curve) [5]: ~0.03 µg/mL
B3: IgG1-CD27-A-E430G (antibody)
heavy: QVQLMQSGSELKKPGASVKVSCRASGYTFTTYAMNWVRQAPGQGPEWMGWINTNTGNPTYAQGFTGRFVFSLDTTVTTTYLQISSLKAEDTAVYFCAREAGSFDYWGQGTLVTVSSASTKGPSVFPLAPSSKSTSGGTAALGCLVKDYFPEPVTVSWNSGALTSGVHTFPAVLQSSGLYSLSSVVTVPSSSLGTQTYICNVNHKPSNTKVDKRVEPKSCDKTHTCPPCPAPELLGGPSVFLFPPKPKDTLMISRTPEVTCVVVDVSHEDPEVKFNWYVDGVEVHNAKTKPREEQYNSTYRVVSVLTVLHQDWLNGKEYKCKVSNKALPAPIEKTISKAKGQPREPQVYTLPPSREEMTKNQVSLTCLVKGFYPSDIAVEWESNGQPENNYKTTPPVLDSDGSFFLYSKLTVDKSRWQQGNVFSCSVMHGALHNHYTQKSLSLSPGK
light: QSALTQPASVSGSPGQSITISCTGTSSDVYYYNYVSWYQQHPGRAPKLVIYDVSNRPSGVSNRFSGSKSGNTASLTISGLRAEDEADYYCSSYTVNRVWVFGGGTKLTVLGQPKAAPSVTLFPPSSEELQANKATLVCLISDFYPGAVTVAWKADSSPVKAGVETTTPSKQSNNKYAASSYLSLTPEQWKSHRSYSCQVTHEGSTVEKTVAPTECS

binding result [5]: binds
B4: IgG1-CD27-A-E345R (antibody)
heavy: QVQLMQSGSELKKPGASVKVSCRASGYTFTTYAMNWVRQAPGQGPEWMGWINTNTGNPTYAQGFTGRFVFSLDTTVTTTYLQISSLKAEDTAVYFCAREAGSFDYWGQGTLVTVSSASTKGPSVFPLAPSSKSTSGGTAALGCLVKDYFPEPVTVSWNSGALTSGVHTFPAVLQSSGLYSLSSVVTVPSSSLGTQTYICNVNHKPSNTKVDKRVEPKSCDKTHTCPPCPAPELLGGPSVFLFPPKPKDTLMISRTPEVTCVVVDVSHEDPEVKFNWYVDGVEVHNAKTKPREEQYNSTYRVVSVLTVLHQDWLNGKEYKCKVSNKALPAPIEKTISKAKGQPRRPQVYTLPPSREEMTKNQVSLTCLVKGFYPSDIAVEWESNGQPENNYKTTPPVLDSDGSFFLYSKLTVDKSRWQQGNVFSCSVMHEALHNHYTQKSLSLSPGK
light: QSALTQPASVSGSPGQSITISCTGTSSDVYYYNYVSWYQQHPGRAPKLVIYDVSNRPSGVSNRFSGSKSGNTASLTISGLRAEDEADYYCSSYTVNRVWVFGGGTKLTVLGQPKAAPSVTLFPPSSEELQANKATLVCLISDFYPGAVTVAWKADSSPVKAGVETTTPSKQSNNKYAASSYLSLTPEQWKSHRSYSCQVTHEGSTVEKTVAPTECS
notes: also called IgG-CD27-A-E345R
